# Several values for one entry are separate records, joined by “and”; a condition that tells them apart may be missing. Equal values may be shown once.
# Tests used:
# Format in all cases: in vivo, BALB/c nude mice
# [1] = tested on: Hs746T human gastric cancer xenograft; test: Hs746T human gastric cancer xenograft model; conditions: for TGI: Day 13; for T/C: Day 13, tumor volume vs P23 isotype mAb group
# Experimental: Hs746T tumor cells (ATCC, Catalog No. HTB-135) were cultured as a monolayer in DMEM medium supplemented with 10% FBS and 1% antibiotic-antimycotic at 37°C in an atmosphere of 5% CO2 in air. Tumor cells (Hs746T) were routinely passaged three times a week by treating with trypsin-EDTA. The cells with exponential growth were harvested and counted for tumor inoculation.
# Mice were randomly assigned to groups of six each, and tumor cells were inoculated into the mice according to the experimental conditions shown in Table 9 below. Specifically, Hs746T tumor cells (2 × 10^6 cells/mouse) were subcutaneously inoculated into the right flank of each mouse together with 0.1 mL of PBS containing Matrigel. The teatment was started on day 15 after inoculation, when the average tumor volume reached 197 mm^3, and the date when the treatment started was set as Day 0. This experiment was performed for 27 days.
# The experimental endpoints were set when tumor growth stopped or the mice were cured. The size and volume of the tumor were measured twice a week in two and three dimensions using calipers, and these were used to calculate the T/C (tumor volume over control volume) and TGI (tumor growth inhibition) values.
# In the T/C values (%) above, T and C represent the average volume of the experimental group and the control group on a specific day, respectively, and the T/C value is an index for the antitumor effect.
# The TGI values were calculated using the following equation, where Ti is a mean tumor volume of the treatment group on a specific date, T0 is a mean tumor volume of the treatment group on the first day of treatment, Vi is a mean tumor volume of the vehicle control group on the same day as Ti, and V0 is a mean tumor volume of the vehicle group on the first day of treatment. TGI (%) = [1−(Ti−T0)/(Vi−V0)] × 100 [formula]
# All data were analyzed using SPSS 29.0. p < 0.05 was considered statistically significant.
# [2] = tested on: LU-01-0439 human lung cancer xenograft; test: LU-01-0439 human lung cancer xenograft (PDX) model; conditions: 10 mg/kg i.v. QW × 2 weeks
# Source text: It was aimed to confirm the anticancer effect of the ADC of the present invention from the LU-01-0439 human lung cancer xenograft model of BALB/c nude mice (Zhejiang Vital River Laboratory Animal Technology Co., LTD.).
# The lung cancer PDX model of LU-01-0439 was generated by transplanting surgically resected clinical samples into immunodeficient mice and was established as passage 0 (P0). Then, the cells were subcultured through serial transplantation, and the passage after P0 was defined as passage 1 (P1). The tumor recovered from the frozen P2 tumor tissue was designated as FP3, and finally, FP4 tumor tissue was prepared for the experiment.
# Mice were randomly assigned to groups of eight each, and tumors were implanted into the mice according to the experimental conditions shown in Table 14 below. Specifically, LU-01-0439 FP4 tumor fragments (20-30 mm^3) were subcutaneously implanted into the right flank of each mouse. Treatment was started on day 24 after tumor transplantation, when the mean tumor volume reached 175 mm^3, and the treatment start date was set as Day 0. This experiment was performed for 35 days.
# The tumor size was measured using the same method as in Experimental Example 3-1 above.
# (§1) Statistical analysis was performed on the data obtained 35 days after the start of the experiment to determine differences in tumor volume and tumor weight between groups. […] All data were analyzed using SPSS 29.0. p < 0.05 was considered statistically significant.
# [3] = tested on: NCI-H441 human lung cancer xenograft; test: NCI-H441 human lung cancer xenograft model; conditions: 3 mg/kg i.v. QW × 2 weeks
# Experimental: NCI-H441 tumor cells (ATCC, Catalog No. HTB-174) were maintained in vitro in RPMI 1640 medium supplemented with 10% FBS and 1% antibiotic-antimycotic at 37°C and 5% CO2 in air. Tumor cells NCI-H441 were routinely passaged twice a week by treatment with trypsin-EDTA. The cells with exponential growth were harvested and counted for tumor inoculation.
# Mice were randomly assigned to groups of 10 each, and tumor cells were inoculated into the mice according to the experimental conditions shown in Table 19 below. Specifically, NCI-H441 tumor cells (5 × 10^6 cells/mouse) were subcutaneously inoculated into the right flank of each mouse together with 0.2 mL of PBS containing Matrigel (1:1). Treatment was started on day 14 after inoculation, when the mean tumor volume reached 180 mm^3, and the treatment start date was set as day 0. This experiment was performed for 35 days.
# as §1
# [4] = Day 35, tumor volume vs P23 isotype mAb group
# [5] = Day 35, tumor weight vs P23 isotype mAb group
molecule,measurement,setting,value
"P23-PBX-7016: isotype ADC: anti-influenza A antibody (Navivumab, P23) conjugated with mc-GGFG-PBX-7016; DAR 8 (conjugate, chains of the INN, looked up, mc-GGFG-PBX-7016 payload, DAR 8) VH: QVQLVQSGAEVKKPGASVKVSCKTSGYSFSTYGVSWVRQAPGQGPEWVGWISAYTGITDYAQKFQGRVTLTTDATTATAFLDLRSLRPDDTATYFCARDKVQGRVEVGSGGRHDYWGQGTLVIVSS VL: EVVLTQSPGTLALPPGERATLSCRASHRVGSTYIAWYQQKSGQAPRRLIYGASNRATDIPDRFSGSGSGTDFTLTIRRLEPEDSAVYYCQQFSVSPWTFGQGTRVEIK",Tumor Volume,"[1]; 0.3 mg/kg i.v. single dose, Day 0, mean ± SEM",197 ± 24 mm^3
same,Tumor Volume,"[1]; 0.3 mg/kg i.v. single dose, Day 3, mean ± SEM",309 ± 37 mm^3
same,Tumor Volume,"[1]; 0.3 mg/kg i.v. single dose, Day 6, mean ± SEM",512 ± 87 mm^3
same,Tumor Volume,"[1]; 0.3 mg/kg i.v. single dose, Day 10, mean ± SEM",873 ± 170 mm^3
same,TGI,[1]; 0.3 mg/kg i.v. single dose,26.87%
same,T/C,[1]; 0.3 mg/kg i.v. single dose,76.49%
same,Tumor Volume,"[1]; 0.3 mg/kg i.v. single dose, Day 20, mean ± SEM",2149 ± 475 mm^3
same,Tumor Volume,"[1]; 0.3 mg/kg i.v. single dose, Day 27, mean ± SEM","2,175 ± 874 (n = 3) mm^3"
same,Tumor Volume,"[1]; 1 mg/kg i.v. single dose, Day 0, mean ± SEM",197 ± 24 mm^3
same,Tumor Volume,"[1]; 1 mg/kg i.v. single dose, Day 3, mean ± SEM",298 ± 36 mm^3
same,Tumor Volume,"[1]; 1 mg/kg i.v. single dose, Day 6, mean ± SEM",476 ± 80 mm^3
same,Tumor Volume,"[1]; 1 mg/kg i.v. single dose, Day 10, mean ± SEM",807 ± 171 mm^3
same,TGI,[1]; 1 mg/kg i.v. single dose,27.98%
same,T/C,[1]; 1 mg/kg i.v. single dose,75.52%
same,Tumor Volume,"[1]; 1 mg/kg i.v. single dose, Day 20, mean ± SEM","2,089 ± 416 mm^3"
same,Tumor Volume,"[1]; 3 mg/kg i.v. single dose, Day 0, mean ± SEM",197 ± 23 mm^3
same,Tumor Volume,"[1]; 3 mg/kg i.v. single dose, Day 3, mean ± SEM",281 ± 55 mm^3
same,Tumor Volume,"[1]; 3 mg/kg i.v. single dose, Day 6, mean ± SEM",318 ± 72 mm^3
same,Tumor Volume,"[1]; 3 mg/kg i.v. single dose, Day 10, mean ± SEM",308 ± 80 mm^3
same,TGI,[1]; 3 mg/kg i.v. single dose,84.88%
same,Tumor Volume,"[1]; 3 mg/kg i.v. single dose, Day 13, mean ± SEM",405 mm^3 and 405 ± 125 mm^3
same,T/C,[1]; 3 mg/kg i.v. single dose,25.71%
same,Tumor Volume,"[1]; 3 mg/kg i.v. single dose, Day 17, mean ± SEM",669 ± 192 mm^3
same,Tumor Volume,"[1]; 3 mg/kg i.v. single dose, Day 20, mean ± SEM",826 ± 223 mm^3
same,Tumor Volume,"[2]; Day 0, mean ± SEM",175 ± 15 mm^3
same,Tumor Volume,"[2]; Day 3, mean ± SEM",209 ± 22 mm^3
same,Tumor Volume,"[2]; Day 7, mean ± SEM",238 ± 22 mm^3
same,Tumor Volume,"[2]; Day 10, mean ± SEM",247 ± 19 mm^3
same,Tumor Volume,"[2]; Day 14, mean ± SEM",217 ± 18 mm^3
same,Tumor Volume,"[2]; Day 17, mean ± SEM",217 ± 28 mm^3
same,Tumor Volume,"[2]; Day 21, mean ± SEM",205 ± 42 mm^3
same,Tumor Volume,"[2]; Day 24, mean ± SEM",263 ± 61 mm^3
same,Tumor Volume,"[2]; Day 28, mean ± SEM",393 ± 90 mm^3
same,Tumor Volume,"[2]; Day 31, mean ± SEM",536 ± 117 mm^3
same,TGI,[2]; Day 35,64.62%
same,Tumor Weight on Day 35,[2]; Day 35,0.561 ± 0.117 g
same,Tumor Volume,"[2]; Day 35, mean ± SEM",630 ± 137 mm^3
same,T/C,[2]; [4],43.11%
same,T/C,[2]; [5],42.93%
same,Tumor Volume,"[3]; Day 0, mean ± SEM",180 ± 13 mm^3
same,Tumor Volume,"[3]; Day 4, mean ± SEM",198 ± 16 mm^3
same,Tumor Volume,"[3]; Day 7, mean ± SEM",171 ± 14 mm^3
same,Tumor Volume,"[3]; Day 11, mean ± SEM",140 ± 14 mm^3
same,Tumor Volume,"[3]; Day 14, mean ± SEM",131 ± 14 mm^3
same,Tumor Volume,"[3]; Day 18, mean ± SEM",134 ± 15 mm^3
same,Tumor Volume,"[3]; Day 21, mean ± SEM",138 ± 17 mm^3
same,Tumor Volume,"[3]; Day 25, mean ± SEM",155 ± 20 mm^3
same,Tumor Volume,"[3]; Day 28, mean ± SEM",190 ± 33 mm^3
same,Tumor Volume,"[3]; Day 32, mean ± SEM",235 ± 42 mm^3
same,TGI,[3]; Day 35,91.34%
same,Tumor Weight on Day 35,[3]; Day 35,0.318 ± 0.059 g
same,Tumor Volume,"[3]; Day 35, mean ± SEM",303 ± 54 mm^3
same,T/C,[3]; [4],19.00%
same,T/Cweight,[3]; [5],19.05%

# — patent EP4796128A1, “ANTI-C-MET ANTIBODY-DRUG CONJUGATE COMPRISING CAMPTOTHECIN DERIVATIVE” (Celltrion, Inc., priority 2023, dated 2025)
